Molecular target: Xenopus tropicalis tubulin tyrosine ligase (residues 2–377) (Xenopus tropicalis)
Test: AUC

Kd: ~144 µM
B1: 14-residue α–tubulin C-terminal peptide (VDSVEGEGEEEGEE) (peptide)
chain: VDSVEGEGEEEGEE

Source: PMC3342691 (Nature structural & molecular biology, 2011)
